Where no end group is shown, it is not given here.
B1: Phage-168 (peptide, not shown: large carriers)
peptide: MDWCPKDLWHECFN
modifications: cysteine pairing not given here; also: displayed as fusion to phage pIII, linker and pIII sequence not given here
notes: Clonal phage of the Peptide-9 library
B2: Phage-211 (peptide)
peptide: MDWCPRNMWTVCFL
notes: tested as crude clonal phage supernatant
B3: Phage-231 (peptide)
peptide: VPWCLIISGLDCLN
notes: also called VPWCLIISGLDCIN (so in the source)
B4: Phage-170 (peptide, not shown: large carriers)
peptide: MNWCPSDLWHLCFN
modifications: cysteine pairing not given here; also: displayed as fusion to phage pIII, linker and pIII sequence not given here
notes: as for B1
B5: Phage-166 (peptide, not shown: large carriers)
peptide: MDWCPRHLWDLCFA
modifications: cysteine pairing not given here; also: displayed as fusion to phage pIII, linker and pIII sequence not given here
notes: as for B1
B6: Phage-171 (peptide, not shown: large carriers)
peptide: MNWCPSHLWHMCYF
modifications: cysteine pairing not given here; also: displayed as fusion to phage pIII, linker and pIII sequence not given here
notes: as for B1
B7: Phage-167 (peptide, not shown: large carriers)
peptide: MSWCPQDLWHVCFN
modifications: cysteine pairing not given here; also: displayed as fusion to phage pIII, linker and pIII sequence not given here
notes: as for B1

Assays:
[1] = target: T1, anti-CD28 scFv (VH - linker 1 - VL) (biotinylated (captured on neutravidin coated plates)); assay: clonal phage ELISA on anti-CD28 scFv; wells pre-incubated with soluble CD28 (competitor);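 note: crude phage supernatants added to wells preloaded with blocking buffer plus soluble CD28, bound phage read with HRP-linked anti-M13 antibody, comparison wells received blocking buffer only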
Protocol: (§1) Clonal phage were harvested as crude supernatants and screened via standard enzyme linked immunosorbent assays (ELISAs). […] Prior to the addition of clonal phage, wells were incubated with blocking buffer and CD28 soluble protein or blocking buffer alone. Without washing or aspirating, clonal phage supernatants were then added to the wells and incubated for a short time. Wells were then washed followed by detection of bound phage using a horse radish peroxidase conjugated anti-M13 antibody.

[2] = target: T1, anti-CD28 scFv (VH - linker 1 - VL); assay: clonal phage ELISA; biotinylated anti-CD28 scFv on neutravidin plate, phage detected with anti-M13-HRP;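 note: crude clonal phage supernatants added to wells preincubated with blocking buffer alone or blocking buffer plus soluble CD28 protein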
Protocol: as §1

[3] = target: T2, anti-CD28 scFv (VH - linker 1 - VL) (biotinylated (site not stated)); assay: phage ELISA as above, wells pre-incubated with soluble CD28 (competitor);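 note: ELISA of crude clonal phage supernatants added to wells pre-treated with soluble CD28 in blocking buffer, bound phage read out with HRP-conjugated anti-M13 antibody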
T2 sequence (scFv, as listed by the source): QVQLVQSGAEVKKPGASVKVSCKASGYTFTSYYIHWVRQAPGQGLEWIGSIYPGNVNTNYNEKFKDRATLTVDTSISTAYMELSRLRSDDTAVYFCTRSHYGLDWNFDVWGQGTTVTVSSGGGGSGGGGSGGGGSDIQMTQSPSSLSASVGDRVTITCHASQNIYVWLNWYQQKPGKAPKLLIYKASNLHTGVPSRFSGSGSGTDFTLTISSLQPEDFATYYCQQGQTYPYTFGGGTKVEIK

[4] = target: T2, anti-CD28 scFv (VH - linker 1 - VL); assay: phage ELISA; biotinylated anti-CD28 scFv on neutravidin plate, clonal phage supernatant, anti-M13-HRP detection;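 note: before phage addition, wells were pretreated with soluble CD28 protein in blocking buffer, or with blocking buffer only as the comparison, then phage were added without washing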
Protocol: as §1

[5] = target: T3, anti-CD28 scFv (VH - linker 1 - VL) (biotinylated (site not stated)); assay: clonal phage ELISA; biotinylated anti-CD28 scFv on neutravidin plate, anti-M13-HRP detection;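 note: crude supernatants of phage clones were tested in wells pretreated with blocking buffer either alone or supplemented with soluble CD28 protein before phage addition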
T3 construct: Captured as biotinylated scFv on neutravidin coated plates in the clonal phage ELISA
T3 sequence (scFv, as listed by the source): as above

T1 sequence (scFv, as listed by the source): as above

Binder | CD28 scFv signal in presence of CD28 [1] | CD28 scFv signal [2] | CD28 scFv signal in presence of CD28 [3] | CD28 scFv signal [4] | CD28 scFv signal [5]
MDWCPRALWFECFF [Phage-234] | 0.331 | 2.67 | – | – | –
MDWCPSDMWAHCYN [Phage-249] | 0.109 | 1.21 | – | – | –
B1 | – | – | 0.1 | 0.762 | –
MDFCPISLWHECFF (peptide, not shown: large carriers, Clonal phage of the Peptide-9 library) [Phage-151] | – | – | 0.129 | 1.58 | –
MDWCPRFMWAECFN [Phage-247] | 0.341 | 2.6 | – | – | –
MDWCPPYLWSECFA [Phage-238] | 0.234 | 2.6 | – | – | –
MDWCPKHLWHQCFH (peptide, not shown: large carriers, Clonal phage of the Peptide-9 library) [Phage-156] | – | – | 0.108 | 1.35 | –
MDWCPRYLWHECFS [Phage-235] | 0.303 | 2.65 | – | – | –
MDWCPRYLWHECFD [Phage-244] | 0.177 | 2.07 | – | – | –
MDWCPKVMWHYCFA [Phage-250] | 0.252 | 1.14 | – | – | –
MHWCPLHLWNECYH (peptide, not shown: large carriers, Clonal phage of the Peptide-9 library) [Phage-155] | – | – | 0.113 | 1.37 | –
VPWCQIISGLECLT [Phage-229] | 0.077 | 0.174 | – | – | –
APWCQIISGLECLT [Phage-230] | 0.078 | 0.169 | – | – | –
B2 | – | – | – | – | 1.12
MDWCPRDRWVDCFF [Phage-223] | 0.14 | 1.58 | – | – | –
MDWCPRDRWADCFF [Phage-225] | 0.089 | 0.392 | – | – | –
B3 | 0.09 | 0.107 | – | – | –
MDWCPKDRWNDCYF [Phage-224] | – | 1.09 | – | – | –
B4 | – | – | 0.131 | 0.739 | –
MDWCPRSLWSYCFH (peptide, not shown: large carriers, Clonal phage of the Peptide-9 library) [Phage-157] | – | – | 0.152 | 1.33 | –
MDWCARFVGYGCLD [Phage-232] | 0.074 | 0.065 | – | – | –
B5 | – | – | 0.096 | 0.925 | –
MDWCPRHLWDLCFF (peptide, not shown: large carriers, Clonal phage of the Peptide-9 library) [Phage-153] | – | – | 0.182 | 1.4 | –
MDWCPRHLWDQCFA (peptide, not shown: large carriers, Clonal phage of the Peptide-9 library) [Phage-161] | – | – | 0.144 | 1.12 | –

Binder | CD28 scFv signal in presence of CD28 [1] | CD28 scFv signal [2] | CD28 scFv signal in presence of CD28 [3] | CD28 scFv signal [4] | CD28 scFv signal [5]
MDWCPRYLWHVCFN [Phage-239] | 0.409 | 2.6 | – | – | –
MDWCPRTLWHVCFN [Phage-240] | 0.551 | 2.6 | – | – | –
MFWCPRYLWHECFN (peptide, not shown: large carriers, Clonal phage of the Peptide-9 library) [Phage-163] | – | – | 0.175 | 1.08 | –
MHWCPRALWHECFN (peptide, not shown: large carriers, Clonal phage of the Peptide-9 library) [Phage-160] | – | – | 0.144 | 1.18 | –
MDWCPFYLWDECFL (peptide, not shown: large carriers, Clonal phage of the Peptide-9 library) [Phage-165] | – | – | 0.141 | 1.02 | –
MDWCPRDLWNLCFF [Phage-236] | 0.436 | – | – | – | –
MAWCPMNLWDQCFF (peptide, not shown: large carriers, Clonal phage of the Peptide-9 library) [Phage-159] | – | – | 0.145 | 1.2 | –
ITWCHVISGLECWN [Phage-228] | 0.1 | 0.193 | – | – | –
MDWCPRNMWHHCFD [Phage-248] | 0.524 | 1.6 | – | – | –
MDWCPKYLWDKCFH (peptide, not shown: large carriers, Clonal phage of the Peptide-9 library) [Phage-152] | – | – | 0.109 | 1.54 | –
B6 | – | – | 0.192 | 0.702 | –
MDWCPKFLWDLCFA (peptide, not shown: large carriers, Clonal phage of the Peptide-9 library) [Phage-164] | – | – | 0.139 | 1.07 | –
MDWCPKHLWNKCFN [Phage-246] | 0.092 | 1.16 | – | – | –
MDWCPRYLWTECFF (peptide, not shown: large carriers, Clonal phage of the Peptide-9 library) [Phage-158] | – | – | 0.244 | 1.26 | –
B7 | – | – | 0.112 | 0.86 | –
MDWCPRHLWHECYS [Phage-241] | 0.374 | 2.58 | – | – | –
MTWCPTSFWNRCLD [Phage-233] | 0.405 | 0.392 | – | – | –
MNWCPTDLWHECFN (peptide, not shown: large carriers, Clonal phage of the Peptide-9 library) [Phage-162] | – | – | 0.095 | 1.09 | –
MDWCPRDRWIDCFN [Phage-226] | 0.131 | 0.339 | – | – | –
MDWCPRDRWSDCFN [Phage-227] | 0.074 | 0.102 | – | – | –
MDWCPSYLWHECFF [Phage-237] | 0.447 | 2.61 | – | – | –
MDWCPRNLWHLCFA [Phage-245] | 0.164 | 1.4 | – | – | –
MDWCPKHLWTECFA [Phage-242] | 0.145 | 2.49 | – | – | –
MDWCPRHLWYECFN [Phage-243] | 0.167 | 2.41 | – | – | –
